From PMC4753449, “Conformational plasticity of RepB, the replication initiator protein of promiscuous streptococcal plasmid pMV158” (Scientific Reports, 2016)

B1: RepB OD (oligomerisation domain, residues 127 to 210) (domain or fragment, UniProt P13921 127-210, looked up)
chain: DIDRYVTLDVEEKTELFNVVVSLIRAYTLQNIFDLYDFIDENGETYGLTINLVNEVIAGKTGFMKLLFDGAYQRSKRGTKNEER
notes: RepB of plasmid pMV158 (Streptococcus agalactiae), oligomerisation domain, residues 127 to 210; theoretical mass of the hexamer 58,300 Da; also called OD-only construct; OD hexamer; source: Escherichia coli M15, purified (Ni-NTA agarose), His-tag removed with TAGZyme; not shown: His6, N-terminal, cleaved
B2: RepB, rolling-circle replication initiator protein of plasmid pMV158 (hexamer) (natural protein, UniProt P13921 1-210, looked up)
chain: MAKEKARYFTFLLYPESIPSDWELKLETLGVPMAISPLHDKDKSSIKGQKYKKAHYHVLYIAKNPVTADSVRKKIKLLLGEKSLAMVQVVLNVENMYLYLTHESKDAIAKKKHVYDKADIKLINNFDIDRYVTLDVEEKTELFNVVVSLIRAYTLQNIFDLYDFIDENGETYGLTINLVNEVIAGKTGFMKLLFDGAYQRSKRGTKNEER
notes: RepB, replication initiator protein encoded by the promiscuous plasmid pMV158, originally isolated from Streptococcus agalactiae; 24 kDa polypeptide; OBD (N-terminal) and OD (C-terminal) domains; the OD construct ends at residue 210; The final model of 4U87 comprises residues 3-204 of three protomers in the asymmetric unit; also called RepB6; RepB hexamer

How the values were obtained:
[1] = biological target: the molecule itself; test: AUC; sedimentation equilibrium, 20 °C, 20 mM NaH2PO4 pH 7.0, 150 mM NaCl; OBD 10-60 μM at 22,000 rpm, OD 10-100 μM at 13,000 rpm; single-species model
[2] = biological target: the molecule itself; test: SAXS; free RepB in solution at 20, 40 and 83 μM RepB6 (12.1, 5.8 and 2.9 mg/mL); 10 mM TRIS pH 8.5, 5 mM EDTA, 1.0 M KCl

Protein	stoichiometry N [1]	stoichiometry N [2]
B1	6	–
B2	–	6
